In publication PMC11626150 (Proceedings of the National Academy of Sciences of the …, 2024):
Positions count from the first letter of the chain named. Numbers in names are those of the source.

B1: neutralizing monoclonal antibody 8C11 (antibody, V domains shown)
VH: QVTLKESGPGILQPSQTLSLTCSFSGFSLSTSGMGVGWIRQPSGKGLEWLAHIWWDDVKRYSPALKSRLTISKDTSSSQLFLKIASVDTADTATYYCARIKSVITTGDYALDYWGQGTSVAVSS
VL: DIQMTQSPASLSVSVGETVTITCRASEIIYSNLAWYQQKQGKSPQLLVYSATNLAEGVPSRFSGSGSGTQYSLKINSLQSEDFGSYYCQHFWGNPWTFGGGTKLEIK
B2: 8C11 mAb mutant D88A (heavy chain) (antibody, V domains shown)
VH: B1 VH with D88A
VL: B1 VL
B3: 8C11 mAb mutant S67A (heavy chain) (antibody, V domains shown)
VH: B1 VH with S67A
VL: B1 VL
B4: 8C11 mAb mutant K66A (heavy chain) (antibody, V domains shown)
VH: B1 VH with K66A
VL: B1 VL
B5: neutralizing monoclonal antibody 8H3 (antibody, V domains shown)
VH: QVQLKESGPGLVAPSQSLSITCTVSGFSLIGYGVNWVRQPPEKGLEWLGMIWGDGSTDYNSALKSRLSITKDNSKSQVFLKMNSLQTDDTARYYCAMGVRPDPFDYWGQGTLVTVSA
VL: NIMMTQSPSSLAVSAGEKVTMSCKSSQSVLYSSNQKNYLAWYQQKPGQSPKLLIYWASARESGVPDRFTGSGSGTDFTLTINSVQTEDLAVYYCHQYLSSYTFGGGTKLEIK

Experiments:
Assay in all cases: ELISA
[1] = biological target: HEV genotype 4 E2(IV) (Hepatitis E virus genotype 4, swine …, UniProt D3VV84, strain)
[2] = biological target: T1, HEV genotype 1 E2(I) dimer protein (hepatitis E virus genotype 1 (human HEV), UniProt P29326)
[3] = biological target: T1, HEV genotype 1 E2(I) dimer protein; remark: listed apart in the source
[4] = biological target: Other eight antigen mutants (E2 mutants preincubated with 8C11)

| Binder | binding result [1] | ET50 [2] | binding result [3] | further results |
| --- | --- | --- | --- | --- |
| B1 | binds | 172000 dilution fold | – | ET50 (after a non-related mAb) [2]: 188000 dilution fold |
| B2 | – | – | binds | – |
| B3 | – | – | binds | – |
| B4 | – | – | binds | – |
| B5 | binds | 4660 dilution fold | – | fold increase in synergy (8H3 binding with 8C11 pre-bound) [4]: 10 fold; ET50 (after a non-related mAb, anti-HPV mAb A12A3) [2]: 3030 dilution fold |
